{"source": "patent US6635429B1", "about": "“Heterodimeric nuclear receptors proteins, genes encoding same, and usage thereof” (Institut National de la Sante et de la Recherche Medicale, priority 1992, dated 2003)", "molecules": {"B1": {"name": "HAP-TSK: hydroxylapatite column-purified HeLa cell RBF, apparently homogeneous ~64 kDa polypeptide, predominantly hRXR-β (protein, UniProt P28702 1-533, looked up)", "Retinoic acid receptor …": "MSWAARPPFLPQRHAAGQCGPVGVRKEMHCGVASRWRRRRPWLDPAAAAAAAVAGGEQQTPEPEPGEAGRDGMGDSGRDSRSPDSSSPNPLPQGVPPPSPPGPPLPPSTAPSLGGSGAPPPPPMPPPPLGSPFPVISSSMGSPGLPPPAPPGFSGPVSSPQINSTVSLPGGGSGPPEDVKPPVLGVRGLHCPPPPGGPGAGKRLCAICGDRSSGKHYGVYSCEGCKGFFKRTIRKDLTYSCRDNKDCTVDKRQRNRCQYCRYQKCLATGMKREAVQEERQRGKDKDGDGEGAGGAPEEMPVDRILEAELAVEQKSDQGVEGPGGTGGSGSSPNDPVTNICQAADKQLFTLVEWAKRIPHFSSLPLDDQVILLRAGWNELLIASFSHRSIDVRDGILLATGLHVHRNSAHSAGVGAIFDRVLTELVSKMRDMRMDKTELGCLRAIILFNPDAKGLSNPSEVEVLREKVYASLETYCKQKYPEQQGRFAKLLLRLPALRSIGLKCLEHLFFFKLIGDTPIDTFLMEMLEAPHQLA"}}, "target": "T1, hRAR-γ binding to β-RARE (Homo sapiens, UniProt P13631)", "T1 construct": "fused to the amino terminal amino acid of full length hRAR-γ; 14 amino acids from the parental vector pEt3a (bacterially expressed preparation only) (N); made in house; host or cells: E. coli BL21 (DE3) plysS; also rVV-infected HeLa cells, rBV-infected Sf9 cells, yeast (ubiquitin fusion) and rabbit reticulocyte lysate", "T1 sequence (P13631 1-454)": "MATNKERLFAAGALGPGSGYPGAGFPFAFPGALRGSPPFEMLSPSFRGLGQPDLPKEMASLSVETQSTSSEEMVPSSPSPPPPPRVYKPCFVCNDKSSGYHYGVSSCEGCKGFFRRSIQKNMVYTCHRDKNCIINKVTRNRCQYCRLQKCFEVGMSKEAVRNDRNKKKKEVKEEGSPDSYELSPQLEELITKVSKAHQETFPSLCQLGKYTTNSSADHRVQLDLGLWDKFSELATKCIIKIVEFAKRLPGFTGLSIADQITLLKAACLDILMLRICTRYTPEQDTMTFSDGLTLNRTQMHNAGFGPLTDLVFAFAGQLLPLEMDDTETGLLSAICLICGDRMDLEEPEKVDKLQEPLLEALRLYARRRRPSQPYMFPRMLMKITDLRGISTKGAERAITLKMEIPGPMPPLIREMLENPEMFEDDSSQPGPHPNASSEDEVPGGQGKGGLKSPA", "T1 sequence (P28702 1-533 partner)": "B1 Retinoic acid receptor …", "test": "Gel retardation assay of RAR binding to β-RARE (RBF complementation)", "details": "RBF activity, complementation gel retardation with bacterially-expressed hRAR-γ", "method": "For gel retardation experiments comparing RAR and RXR subtypes and deletion mutants, all proteins were produced by in vitro translation in the presence of [^35S]methionine.\nPurification of rVV- and rBV-expressed hRAR-γ is being described elsewhere (Chen et al., manuscript in preparation). […] All steps were carried out at 4° C. and RBF activity was monitored through all purification steps by a complementation gel retardation assay using bacterially-expressed hRAR-γ as described above. […] The column was washed with equilibration buffer until the A280 of the eluent returned to baseline. […] The column was washed with equilibration buffer until the A280 of the eluent returned to baseline and then with 4 column volumes of buffer A containing 0.45 M ammonium sulfate and 50 mM KCl. The column was then eluted with an 18 ml linear gradient from 0.45 to 0 M ammonium sulfate in buffer A containing 50 mM KCl."}
{"molecule": "B1", "values": [{"measurement": "Specific Activity", "value": "7,750,000 cpm/μg"}]}
